The values that follow come from patent US20250034266A1 (ZAI LAB SHANGHAI, published 2025).

Changes are numbered by the printed parent chain.

B1: 348E2D11 (antibody, V domains shown)
VH: QVQLVETGGGLVRPGNSLKLSCVTSGFSFSNYRMHWLRQPPGKRLEWIAVITVKSDNYGANYAESVKGRFTISRDDSKSSVYLQMNRLREEDTATYYCSSLGRVAYWGQGTLVTVSA
VL: DIVMTQSQKFMFTSVGDRVSVTCKASQNVDTNVVWYQQKPGQSPKALIYSASSRYSGVPDRFTGSGSGTDFTLTISNVQSEDLAEYFCQQHNSFPLTFGAGTKLELI
notes: Murine hybridoma antibody
B2: 191E12H8 (antibody, V domains shown)
VH: DVQLQESGPGLVKPSQSLSLTCSVTGYSITSGYYWNWIRQFPGNKLEWMGYISYDGSNNYNPSLKNRISITRDISKNQFFLKLNSVTTEDTATYYCARQIGLRRGAMDYWGQGTSVTVSS
VL: DIQMTQSSSYLSVSLGGRVTITCKASDHINTWLAWYQQKPGNAPRLLISGSTSLKAGVASRFSGSGSGKDYTLTITSLQTEDVATYYCQQYWGIPFTFGGGTKLEIK
notes: Murine hybridoma antibody
B3: 204A2G12 (antibody, V domains shown)
VH: B2 VH with S57T, I74T, N84T, I100V, G105A, A106W, M107F, D108A, S115L, S120A
VL: DIQMTQSSSFLSVSLGGRVTITCKASDHINYWLAWYQQKPGNAPRLLISGATSLETGVPSRFSGSGSGKDYTLTITSLQNEDVATYYCHQYWSTPTFGSGTKLEIK
notes: Murine hybridoma antibody
B4: 234G9C12 (antibody, V domains shown)
VH: B2 VH with I52T, L64F, Y109H
VL: B2 VL with T31N, K55R
notes: Murine hybridoma antibody; also called 234G4C12
B5: 273H2G6 (antibody, V domains shown)
VH: B2 VH with I100V
VL: B2 VL with T31N, T74S, G93S, F96Y
notes: Murine hybridoma antibody
B6: 262C2G7 (antibody, V domains shown)
VH: B2 VH with Q3H
VL: B2 VL with T31N
notes: Murine hybridoma antibody
B7: 149F2C10 (antibody, V domains shown)
VH: EVQLVESGGGLVQPKGSLKLSCAASGFTFNTYAMNWVRQAPGKGLEWVARIRSKSNFYATYYADSVKDRFTISRDDSQDMLYLQMNILKTEDTAIYYCVRGRDYGSSYAMDYWGQGTSVTVSS
VL: DIVMTQAAPSVPVTPGESVSISCRSSKSLLHSNGNTYLYWFLQRPGQSPQLLIYRMSNLASGVPDRFSGSGSGTAFTLRISRVEAEDVGVYYCMQHLEYPLTFGAGTKLELK
notes: also called 1491F2C0
B8: 164G10D6 (antibody, V domains shown)
VH: B7 VH
VL: B7 VL
notes: Murine hybridoma antibody; also called 164G10C6
B9: 153D4G2 (antibody, V domains shown)
VH: B7 VH
VL: B7 VL
notes: Murine hybridoma antibody; also called 153D3G2; 1531D4G2
B10: 160D1E3 (antibody, V domains shown)
VH: B7 VH with F57Y, I87N
VL: B7 VL
notes: Murine hybridoma antibody
B11: 499B1A5 (antibody, V domains shown)
VH: B7 VH with F57N, D79S, I87N, I95M, G101H, R102G, D103R, Y104S, S106Y, S107L
VL: DIVMTQAAFSNPVTLGTSASISCRSSKSLLHSNGITYLYWYLQKPGQSPQLLIYQMSNLASGVPDRFSSSGSGTDFTLRISRVEAEDVGVYYCAQSLELPLTFGAGTKLELK
notes: Murine hybridoma antibody (supernatant)

T1 sequence (P51685 whole entry, the tested form may be a part): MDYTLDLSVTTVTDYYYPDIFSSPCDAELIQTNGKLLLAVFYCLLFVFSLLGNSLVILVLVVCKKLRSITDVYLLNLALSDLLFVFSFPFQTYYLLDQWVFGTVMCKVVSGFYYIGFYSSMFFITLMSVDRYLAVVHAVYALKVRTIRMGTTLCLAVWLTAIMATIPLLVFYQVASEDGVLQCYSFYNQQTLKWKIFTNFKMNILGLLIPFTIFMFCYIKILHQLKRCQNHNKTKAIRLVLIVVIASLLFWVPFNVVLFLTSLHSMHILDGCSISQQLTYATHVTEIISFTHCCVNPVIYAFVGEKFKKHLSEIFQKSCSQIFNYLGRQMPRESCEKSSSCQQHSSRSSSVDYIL

One assay has as its target T1, human CCR8 (human, UniProt P51685 1-355).
T1 construct: whole, on cells; In the β-arrestin assay CCR8 is fused to the ProLink (PK) tag; also called hCCR8; CHO-K1-human CCR8
In words: FACS on CHO-K1-human CCR8 cells. On the procedure:
(§1) The binding affinities of purified antibodies were determined on human CCR8 and cynomolgus CCR8 over-expressing cells. Briefly, CFSE (Life technology, Cat #: C34554) labeled CHO-K1-human CCR8 cells mixed with CHO-K1 cells, CFSE labeled HEK293-human CCR8 cells mixed with H1EK293 cells, or CFSE labeled H1EK293-cynomolgus CCR8 cells mixed with HTEK293 cells were used in the assay. The mix ratio was 1:1. A total of 5×10⁴ mixed cells for each well were seeded in 96-well plate and washed by FACS buffer (DPBS containing 10% FBS) once. Cells were incubated by series diluted purified hybridoma antibodies for 1 hour at 4° C. Antibodies were prepared with 3-fold serial dilution ranging from 200 nM to 0.003 nM in FACS buffer. After primary antibody incubation, cells were washed by FACS buffer for three times. Then, cells were stained with secondary antibody (Alexa Flu647-conj gated rabbit anti-mouse IgG, Jackson ImmunoResearch, #315606046) at 1:600 dilution in FACS buffer and incubated for 0.5 hour at 4° C. […] FlowJo software was used for analysis. Data was plotted as the logarithm of antibody concentration versus mean fluorescence signals. EC₅₀ values were calculated in GraphPad Prism 8 (GraphPad Software) using a log(agonist) vs. response-Variable slope (4 parameters) curve fit. […] The EC₅₀s of the selected antibodies on human CCR8 are less than 5 nM except those of 262C2G7 and 234G9C12. The EC₅₀s of the selected antibodies on cynomolgus CCR8 are less than 1 nM except that of 348E2D11 (Table 8).
For B1, the half-maximal effective concentration (EC50) came to 0.397 nM and the “Max MFI” value was 51500 MFI.
On the same counts, the results for B2 are 2.25 nM and 24000 MFI.
On the same counts, the results for B3 are 0.334 nM and 10200 MFI.
Taken in the same sequence, the figures for B4 were 18.5 nM and 73900 MFI.
Take B5: the EC50 amounted to 0.137 nM and the “Max MFI” value turned out to be 8490 MFI.
On the same counts, the results for B6 are 126 nM and 86400 MFI.
On to B7, for which the concentration for a half-maximal effect (EC50) stood at 0.878 nM and the “Max MFI” value was found to be 50700 MFI.
On the same counts, the results for B8 are 0.652 nM and 54900 MFI.
On the same counts, the results for B9 are 0.64 nM and 51400 MFI.
With B10, the EC50 was 0.456 nM and the “Max MFI” value was determined as 51500 MFI.

The target in another assay is T1, human CCR8. The experiment in a line: FACS on HEK293-human CCR8 cells. On the procedure: as §1
Turning to B1, the half-maximal effective concentration (EC50) was determined as 0.111 nM and the “Max MFI” value was determined as 11000 MFI.
Taken in the same sequence, the figures for B2 were 1.5 nM and 10700 MFI.
On the same counts, the results for B3 are 0.142 nM and 3620 MFI.
Taken in the same sequence, the figures for B4 were 1.42 nM and 9840 MFI.
Regarding B5, the response was half-maximal at 0.149 nM (EC50) and the “Max MFI” value was found to be 4680 MFI.
With B6, the EC50 was found to be 0.139 nM and the “Max MFI” value was 7210 MFI.
Taken in the same sequence, the figures for B7 were 0.346 nM and 12000 MFI.
Regarding B8, it took 0.277 nM to reach a half-maximal effect (EC50) and the “Max MFI” value came out at 11900 MFI.
On the same counts, the results for B9 are 0.24 nM and 11600 MFI.
For the molecule B10, the EC50 came to 0.278 nM and the “Max MFI” value came to 11900 MFI.

The target in a further assay is T2, cynomolgus CCR8 (cynomolgus, UniProt G7NYJ2 1-355).
T2 construct: whole, on cells; also called HEK293-Cynomolgus CCR8; ExpiCHO-S cynomolgus CCR8
T2 sequence (G7NYJ2 entry or part of it): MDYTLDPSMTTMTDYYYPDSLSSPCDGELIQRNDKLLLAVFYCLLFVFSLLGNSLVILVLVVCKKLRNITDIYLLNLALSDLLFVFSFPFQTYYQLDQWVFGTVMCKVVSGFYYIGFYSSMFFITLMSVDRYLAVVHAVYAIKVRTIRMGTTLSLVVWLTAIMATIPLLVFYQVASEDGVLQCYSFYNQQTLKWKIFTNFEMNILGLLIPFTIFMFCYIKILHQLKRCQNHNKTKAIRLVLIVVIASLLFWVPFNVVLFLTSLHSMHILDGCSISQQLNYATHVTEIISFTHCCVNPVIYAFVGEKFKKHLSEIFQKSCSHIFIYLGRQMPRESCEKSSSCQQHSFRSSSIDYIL
The experiment in a line: FACS on HEK293-Cynomolgus CCR8 cells. The procedure:
as §1
B1: the “Max MFI” value stood at 7580 MFI.
Regarding B2, the response was half-maximal at 0.397 nM (EC50) and the “Max MFI” value is 5190 MFI.
On the same counts, the results for B3 are 0.163 nM and 3200 MFI.
Taken in the same sequence, the figures for B4 were 0.212 nM and 4140 MFI.
For the molecule B5, the EC50 was 0.154 nM and the “Max MFI” value amounted to 3500 MFI.
Regarding B6, the EC50 turned out to be 0.216 nM and the “Max MFI” value came out at 2940 MFI.
Taken in the same sequence, the figures for B7 were 0.479 nM and 8830 MFI.
On the same counts, the results for B8 are 0.32 nM and 8290 MFI.
Taken in the same sequence, the figures for B9 were 0.699 nM and 10700 MFI.
Consider B10, for which the concentration giving a half-maximal response (EC50) worked out at 0.422 nM and the “Max MFI” value was 8940 MFI.

A further assay addresses T2, cynomolgus CCR8. The experiment in a line: FACS, hybridoma supernatant on cynomolgus CCR8 cells. The procedure:
(§2) Binding of hybridoma supernatant on CHO-K1-human CCR8 and ExpiCHO-S cynomolgus CCR8 cells. A total of 660 96-well plates were seeded and screened by FACS binding from the hybridoma derived from immunized animals.
(§3) To obtain antibodies cross-reactive to human and cynomolgus CCR8, hybridomas from mice immunized with human and cynomolgus CCR8 DNAs were screened by FACS. Briefly, 50 μL ExpiCHO-S cells transfected with human CCR8 or cynomolgus CCR8 (cell density: 2×10⁶ cells/mL, viability>90%) were incubated with equal volume hybridoma supernatant in 96 well plate (Corning) at 4° C. for 1 hour. […] Finally, the mixture was washed and resuspended with FACS buffer, and subjected to FACS analysis on BD FACS Celesta.
With B1, the “Binding Ratio (GFP + MFI)/(GFP - MFI)” value is 74.2.
Regarding B2, the “Binding Ratio (GFP + MFI)/(GFP - MFI)” value worked out at 91.4.
The same measure, in the same setting: under B3 stands 133; under B4, 101; under B5, 112.
For B6, the “Binding Ratio (GFP + MFI)/(GFP - MFI)” value is 99.8.
Same read-out and setting: to B7 belongs 98.2; to B11, 35.1; to B8, 102.
For the molecule B9, the “Binding Ratio (GFP + MFI)/(GFP - MFI)” value amounted to 127.
The same measure, in the same setting: under B10 stands 92.2.

The target of the next assay is T1, human CCR8. In words: FACS, hybridoma supernatant on CHO-K1-human CCR8 cells. The procedure:
as §2, §3
As for B1, the “Binding Ratio (GFP + MFI)/(GFP - MFI)” value is 169.
The same measure, in the same setting: to B2 belongs 345; to B3, 145.
B4: the “Binding Ratio (GFP + MFI)/(GFP - MFI)” value turned out to be 413.
The same measure, in the same setting: to B5 belongs 120; to B6, 404.
On the same count and under the same terms, under B7 stands 170; under B11, 34.4.
On the same count and under the same terms, under B8 stands 198.
B9: the “Binding Ratio (GFP + MFI)/(GFP - MFI)” value is 215.
Same read-out and setting: under B10 stands 168.

Another assay concerns the target T1, human CCR8. The experiment in a line: FACS competition, hybridoma supernatant with 4 nM AF647-human CCL1 on human CCR8 cells.
In the case of B1, the “Inhibition Rate (%)” value worked out at 100%.
B2: the “Inhibition Rate (%)” value came out at 84.8%.
Still for that read-out and setting: to B3 belongs 94.7%; to B4, 88.9%.
The same measure, in the same setting: to B5 belongs 90.2%; to B6, 92.4%.
Turning to B7, the “Inhibition Rate (%)” value worked out at 99.2%.
Same read-out and setting: under B11 stands 95.1%.
The same measure, in the same setting: to B8 belongs 99.4%.
The same measure, in the same setting: under B9 stands 99.1%.
On to B10, for which the “Inhibition Rate (%)” value was 99.1%.
